Measurements taken from patent US20220364094, “CD44 APTAMER” (The Chiness University Of Hong Kong, published 2022).

Molecular target: CD44 hyaluronic acid binding domain (HABD) (UniProt P16070 P16070:21-178)
Assay: ELONA; hardly associated with HABD; epitope expected in region encoded by exons 15-16
Settings: tags: His-tag, commercial; captured via His-tag antibody; label: biotin (loop of second hairpin, 44G-48A region); two hairpins and one stem (predicted)
Procedure: His-tag recombinant CD44 HABD protein was immobilized on ELISA plate using His-tag antibody. The captured CD44 proteins were incubated with various concentrations of biotin-labeled CD44-Apt1 (5 nM-10 μM). Bound Apt1 then were detected by peroxidase-conjugated streptavidin and TMB substrate. […] constant, KD was calculated based on the absorbance values using the one-site binding model for non-linear regression in GraphPad.
The major epitope in CD44 protein that is recognized by the CD44-Apt1 was next determined. CD44 protein consists of an extracellular domain, a transmembrane helical domain, and an intracellular signaling transmission domain (FIG. 1H). The extracellular domain contains a hyaluronic acid binding domain (HABD) at its distal N-terminus and a glycosylation-site enriched variable region, the length of which are vary in different splice variants. Titration sandwich enzyme-linked immunosorbent assay (ELISA) was employed to map the epitope for CD44-Apt1. Antibody targeting the C-terminus of CD44 proteins that is the intracellular signaling domain was immobilized on a polystyrene support. Sites without antibody were blocked using bovine serum albumin. […] The amount of biotin-CD44-Apt1 bound to the captured proteins were evaluated using streptavidin conjugated horseradish peroxidase (HRP) and TMB substrate.

CD44 hyaluronic acid binding domain (HABD), sequence (P16070 21-178, one chain of several): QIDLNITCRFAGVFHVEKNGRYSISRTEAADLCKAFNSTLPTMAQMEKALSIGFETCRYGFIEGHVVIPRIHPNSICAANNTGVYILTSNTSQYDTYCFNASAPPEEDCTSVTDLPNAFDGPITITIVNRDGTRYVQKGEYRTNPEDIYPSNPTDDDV

B1: CD44-Apt1 (biotin) (ssDNA)
DNA: ATCCAGAGTGACGCAGCATCGCAACGATTAGTATGCACCCACCGTATAGGTTGGTCTCTGGACACGGTGGCTTAGT
B1 showed a Kd of 2.36 µM.
